In article PMC3792905, “HIV-1 Vpr Induces the Degradation of ZIP and sZIP, Adaptors of the NuRD Chromatin Remodeling Complex, by Hijacking DCAF1/VprBP” (PLoS ONE, 2013):

B1: HA-tagged Vpr from HIV-1 LAI (natural protein)
chain: MEQAPEDQGPQREPHNEWTLELLEELKNEAVRHFPRIWLHGLGQHIYETYGDTWAGVEAIIRILQQLLFIHFRIGCRHSRIGVTQQRRARNGASRS

What was measured:
DCAF1 [1] = target: DCAF1 (UniProt Q9Y4B6)
DCAF1 [2] = target: DCAF1 (UniProt Q9Y4B6 1-1507); test: cell-based or functional assay
DCAF1 (UniProt Q9Y4B6 1-1507), sequence (Q9Y4B6 whole entry): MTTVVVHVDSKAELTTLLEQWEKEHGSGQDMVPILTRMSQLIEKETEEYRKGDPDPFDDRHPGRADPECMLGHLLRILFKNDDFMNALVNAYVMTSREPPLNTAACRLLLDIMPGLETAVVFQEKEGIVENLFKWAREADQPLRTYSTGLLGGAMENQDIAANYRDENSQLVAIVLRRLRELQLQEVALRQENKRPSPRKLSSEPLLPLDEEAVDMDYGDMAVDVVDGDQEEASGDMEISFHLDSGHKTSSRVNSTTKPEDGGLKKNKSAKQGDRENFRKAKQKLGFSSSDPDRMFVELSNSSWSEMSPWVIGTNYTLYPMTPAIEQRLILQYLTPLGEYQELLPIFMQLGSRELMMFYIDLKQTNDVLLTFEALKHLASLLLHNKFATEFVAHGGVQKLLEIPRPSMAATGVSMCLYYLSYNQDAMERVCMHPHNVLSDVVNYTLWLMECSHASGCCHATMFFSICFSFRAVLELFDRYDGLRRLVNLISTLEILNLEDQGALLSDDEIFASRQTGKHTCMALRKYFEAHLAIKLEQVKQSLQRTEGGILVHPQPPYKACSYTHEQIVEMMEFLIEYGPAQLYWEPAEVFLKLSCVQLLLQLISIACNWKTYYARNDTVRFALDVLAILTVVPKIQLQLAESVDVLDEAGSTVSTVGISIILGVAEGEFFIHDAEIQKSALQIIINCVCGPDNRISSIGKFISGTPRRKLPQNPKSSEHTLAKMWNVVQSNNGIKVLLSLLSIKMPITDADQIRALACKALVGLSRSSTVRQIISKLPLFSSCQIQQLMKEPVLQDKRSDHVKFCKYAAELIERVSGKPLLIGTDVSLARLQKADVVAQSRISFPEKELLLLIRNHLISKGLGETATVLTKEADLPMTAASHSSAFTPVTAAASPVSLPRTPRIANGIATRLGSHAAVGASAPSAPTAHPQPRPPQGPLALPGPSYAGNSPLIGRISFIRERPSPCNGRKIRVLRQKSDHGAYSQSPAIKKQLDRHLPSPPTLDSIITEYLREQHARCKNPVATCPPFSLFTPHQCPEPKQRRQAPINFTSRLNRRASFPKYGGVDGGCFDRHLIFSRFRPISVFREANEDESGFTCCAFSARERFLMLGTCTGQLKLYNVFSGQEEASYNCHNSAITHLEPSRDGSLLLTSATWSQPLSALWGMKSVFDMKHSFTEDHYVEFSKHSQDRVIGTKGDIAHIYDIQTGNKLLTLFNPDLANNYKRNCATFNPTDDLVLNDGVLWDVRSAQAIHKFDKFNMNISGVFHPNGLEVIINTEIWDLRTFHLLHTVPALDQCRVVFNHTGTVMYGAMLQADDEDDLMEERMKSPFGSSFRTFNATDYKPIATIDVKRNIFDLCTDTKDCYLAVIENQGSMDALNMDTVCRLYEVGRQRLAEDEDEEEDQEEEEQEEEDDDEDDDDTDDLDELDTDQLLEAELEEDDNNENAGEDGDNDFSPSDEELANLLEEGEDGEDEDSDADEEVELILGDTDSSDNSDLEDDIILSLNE

DCAF1 (UniProt Q9Y4B6), sequence (Q9Y4B6 whole entry): as above

Molecule | sZIP expression (FLAG/GFP signal ratio by Western blot) left in HeLa cells co-expressing FLAG-sZIP and the HA-tagged Vpr protein (DCAF1 [1]) | sZIP expression (FLAG/GFP signal ratio by Western blot) left in HeLa cells co-expressing FLAG-sZIP and the HA-tagged Vpr protein (DCAF1 [2])
VprQ65R (from UniProt P05928 1-96) (natural protein) | 50% | –
B1 | – | < 15%
